The target of the assay is N-terminally His-tagged recombinant ribosomal protein S1 of E. coli (from plasmid p16rpsAHis) (E. coli) (UniProt P0AG67). Put plainly: native gel or EMSA; constant molar amount of S1 mixed with increasing RIII (RIII:S1 0.1:1 to 5:1), 10 min at room temperature, proteins dialysed against 50 mM sodium phosphate pH 7.4, 100 mM NaCl; native 14% PAGE, Coomassie.

“N-terminally 6His-tagged RIII protein of the T4 phage (from plasmid p21drIIIHis) (natural protein)”: the stoichiometry N (RIII:S1 molar ratio) amounted to 1.

Values taken from article PMC9409239.
